Reference: patent US11174322B2, “Antibodies and peptides to treat HCMV related diseases” (priority 2017, dated 2021)

Target: T1, full-length pUL89 (His-pUL89) (Human cytomegalovirus, UniProt P16732)
T1 construct: made in house; host or cells: HEK293
Experiment: Alpha assay (Amplified Luminescent Proximity Homogeneous Assay) of the pUL56/pUL89 protein-protein interaction
Format: binding, human cytomegalovirus (HCMV), AD169
Experimental: FIG. 2: Determination of pUL56 binding domains for the interaction with pUL89 Alpha assay results. The Alpha assay for the binding of full-length pUL89 (His-pUL89, 1.5E+03 nM) was performed with 5E+02 nM wild-type pUL56 (HA-pUL56) or a deletion mutant of pUL56 (HA-pUL56 Del W671-F680). As a negative control, proteins were used alone and a reaction was performed without proteins (mock). Two measures for each reaction were performed in duplicate.
Alpha (Amplified Luminescent Proximity Homogeneous Assay) experiments were conducted according to the manufacturer's protocol (PerkinElmer, USA). Five μL of transfected MRC-5 lysate with HCMV-BAC is first disposed in wells of a 96-well AlphaPlate. The final concentration of each proteins was optimized to obtain the best value of interaction. Ten μL of each purified protein were combined (to give a final assay concentration of 500 nM of 3xHA-pUL56 and 1.5 μM of 6xHis-pUL89). Ten μL and 15 μL of 10 mg/mL of donor beads and acceptor beads, respectively, were added and incubated for 1 hour. Plates were read on a PerkinElmer EnVision™ plate reader using an excitation wavelength of 680 nm and emission detection was set at 615 nm.
HEK293 were transfected with SC784 and pCI-neo His-89 expression plasmids and protein-protein interactions were carried out by the Alpha assay. This technology represents a powerful method to highlight protein-protein interactions (Ullman et al., 1994) (Waller et al., 2010). […]
Alpha assay needs both acceptor and donor beads. […] In the absence of a specific biological interaction between proteins, singlet molecules produced by the Donor bead cannot be detected beyond 200 nm from the Acceptor bead (data not shown). […] Alpha assays with 3xHA-pUL56 and 6xHis-pUL89 results in the production of over 9,000 relative light units (RLU), over two-fold more than negative controls (3xHA-pUL56 or His-pUL89) (FIG. 2). pUL56 depleted of its W671-F680 fragment was in turn soaked with pUL89-WT and their affinity assessed by Alpha analysis. […]

T1 sequence (P16732 whole entry): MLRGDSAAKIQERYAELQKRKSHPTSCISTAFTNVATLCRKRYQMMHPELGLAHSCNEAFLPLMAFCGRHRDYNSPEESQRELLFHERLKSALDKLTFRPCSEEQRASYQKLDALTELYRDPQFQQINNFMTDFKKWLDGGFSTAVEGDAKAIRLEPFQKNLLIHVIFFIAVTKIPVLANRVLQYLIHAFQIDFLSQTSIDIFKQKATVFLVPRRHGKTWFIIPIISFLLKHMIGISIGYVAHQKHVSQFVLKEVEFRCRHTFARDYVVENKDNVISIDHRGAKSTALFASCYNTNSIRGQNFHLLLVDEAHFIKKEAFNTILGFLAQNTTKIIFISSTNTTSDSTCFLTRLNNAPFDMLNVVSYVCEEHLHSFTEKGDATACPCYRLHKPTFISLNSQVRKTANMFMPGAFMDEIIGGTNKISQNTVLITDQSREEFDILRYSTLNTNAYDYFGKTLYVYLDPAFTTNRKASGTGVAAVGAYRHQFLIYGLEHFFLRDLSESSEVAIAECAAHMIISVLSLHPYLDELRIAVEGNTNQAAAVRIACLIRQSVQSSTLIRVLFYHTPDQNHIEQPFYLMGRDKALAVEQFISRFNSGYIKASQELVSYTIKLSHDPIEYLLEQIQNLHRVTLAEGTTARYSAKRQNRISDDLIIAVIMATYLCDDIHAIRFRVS

Row | Molecule | Alpha assay signal relative to negative controls (3xHA-pUL56 or His-pUL89 alone) (500 nM 3xHA-pUL56 with 1.5 μM 6xHis-pUL89) | Alpha assay signal (light production at 615 nm) (500 nM 3xHA-pUL56 with 1.5 μM 6xHis-pUL89, purified proteins from HEK293) | decrease of the interaction signal with pUL89-WT (pUL56 deletion mutant versus wild-type pUL56, FIG. 2) [%]
1 | 3xHA-pUL56: full-length amino-terminal 3xHA-tagged pUL56, HCMV large terminase subunit, purified from transfected HEK293 (protein, left off: small tags and cut ends, full-length amino-terminal 3xHA-tagged pUL56, HCMV large terminase subunit, purified from transfected HEK293) MEMNLLQKLCVVCSKCNEYAMELECLKYCDPNVLLAESTPFKRNAAAIVYLYRKIYPEVVAQNRTQSSLLTLYLEMLLKALHEDTALLDRALMAYSRQPDRAAFYRTVLRLDRCDRHHTVELQFTDNVRFSVSLATLNDIERFLCKMNYVYGILAPEAGLEVCAQLLELLRRLCGISPVARQEVYVEGTTCAQCYEELTIIPNQGRSLNKRLQGLLCNHIAVHRPSSQSDVNIQTVEQDLLDLTTRIPHLAGVLSALKSLFSSSSAYHSYIQEAEEALREYNLFTDIPERIYSLSDFTYWSRTSEVIVKRVGITIQQLNVYHQLCRALMNGISRHLYGEDVEDIFVLGEKALDGEERMFVGSVFAAPNRIIDLITSLSIQAFEDNPVFNKLHESNEMYTKIKHILEEIRRPLPDGTGGDGPEGEAIHLRGREAMSGTGTTLMTASNSSNSSTHSQRNNGGGGRARGGGKKAVGGGANGQDGDGSENGLRVRNCDEHEALDLVDARSRIHNVTREVNVRKRAYLQKVSEVGYGKVIRCIKTQERLTSKLIDVNLVGPLCLDFISKLMNGFLYRSQYHQDQDVVDVGDQFTYDEHLYVVNNLIHKSLPVESLPLLGQQIYELCNGPLFTHCTDRYPLSHNVDMAYACDNAGVLPHVKDDLVKCAEGTVYPSEWMVVKYMGFFNFSDCQDLNVLQKEMWMHVRELVLSVALYNETFGKQLSIACLRDELHPDRDVILTYNKEWPLLLRHEGNLYKSKDLYLLLYRHLSRPDESGDVPTAPVAKPSTLTAAAAVSGAFREPDRPWLPSPYPSSSTAGVSRRVRATRKRPRRASSLLDLARDEHGIQDLVPGSLR | over two-fold | over 9,000 relative light units (RLU) | –
2 | pUL56 depleted of its W671-F680 fragment (protein, left off: small tags and cut ends) MEMNLLQKLCVVCSKCNEYAMELECLKYCDPNVLLAESTPFKRNAAAIVYLYRKIYPEVVAQNRTQSSLLTLYLEMLLKALHEDTALLDRALMAYSRQPDRAAFYRTVLRLDRCDRHHTVELQFTDNVRFSVSLATLNDIERFLCKMNYVYGILAPEAGLEVCAQLLELLRRLCGISPVARQEVYVEGTTCAQCYEELTIIPNQGRSLNKRLQGLLCNHIAVHRPSSQSDVNIQTVEQDLLDLTTRIPHLAGVLSALKSLFSSSSAYHSYIQEAEEALREYNLFTDIPERIYSLSDFTYWSRTSEVIVKRVGITIQQLNVYHQLCRALMNGISRHLYGEDVEDIFVLGEKALDGEERMFVGSVFAAPNRIIDLITSLSIQAFEDNPVFNKLHESNEMYTKIKHILEEIRRPLPDGTGGDGPEGEAIHLRGREAMSGTGTTLMTASNSSNSSTHSQRNNGGGGRARGGGKKAVGGGANGQDGDGSENGLRVRNCDEHEALDLVDARSRIHNVTREVNVRKRAYLQKVSEVGYGKVIRCIKTQERLTSKLIDVNLVGPLCLDFISKLMNGFLYRSQYHQDQDVVDVGDQFTYDEHLYVVNNLIHKSLPVESLPLLGQQIYELCNGPLFTHCTDRYPLSHNVDMAYACDNAGVLPHVKDDLVKCAEGTVYPSENFSDCQDLNVLQKEMWMHVRELVLSVALYNETFGKQLSIACLRDELHPDRDVILTYNKEWPLLLRHEGNLYKSKDLYLLLYRHLSRPDESGDVPTAPVAKPSTLTAAAAVSGAFREPDRPWLPSPYPSSSTAGVSRRVRATRKRPRRASSLLDLARDEHGIQDLVPGSLR | – | – | 50
